# Assay results as given in the supplement of paper PMC10219994.
# ± gives the standard deviation of the averaged measurements.
# B1: library; a variant is named by its letters at N, in order (parent)
# chain: GAGACCGCAACTGAAAAGTTGTGGNNNNNATAGTGAGTCGCTGCCTGCAAAGACACAACT
# Variants of: B1
# Test: ligation selection enrichment (abundance after / before one-round selection) (fold); higher = more template-directed ligation activity
# Settings: with T7Psub CACGGAUGCUAAUACGACUCACUAUA; MgCl2 25 mM; 42 °C; 4 h; pH 8.5
# Outline: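 In each of two independent experiments, 6 μM RNA substrate was reacted for 4 h at 42 °C with 0.75 μM of a T7-transcribed RNA ligase library randomized at five core positions, in buffer containing 50 mM EPPS pH 8.5 and 25 mM MgCl2. Only reads scoring ≥30 in quality at all randomized positions were counted after MiSeq sequencing. Each enrichment value is the ratio of abundance after ligation to abundance before ligation.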
row,Variant,ligation selection enrichment
1,CTCCG,0.347 ± 0.032
2,TTAGC,0.139 ± 0.035
3,TTAGG,0.306 ± 0.061
4,TTAGA,0.304 ± 0.054
5,TTAGT,0.265 ± 0.074
6,GTTGA,5.22 ± 0.32
7,GTTGG,0.739 ± 0.059
8,GTTGC,0.769 ± 0.034
9,GTTGT,0.353 ± 0.054
10,GGTTC,0.216 ± 0.015
11,GGTTA,0.477 ± 0.095
12,GGTTT,0.452 ± 0.082
13,GGTTG,3.91 ± 0.67
14,GTTTA,0.446 ± 0.026
15,GTTTT,0.277 ± 0.048
16,GTTTC,0.169 ± 0.068
17,GTTTG,2.05 ± 0.47
18,CTATA,0.148 ± 0.068
19,CTATT,0.546 ± 0.083
20,CTATC,0.144 ± 0.0049
21,CTATG,0.36 ± 0.029
22,ATGAT,34.6 ± 8.1
23,ATGAA,0.823 ± 0.12

row,Variant,ligation selection enrichment
1,ATGAG,0.834 ± 0.057
2,ATGAC,1.69 ± 0.044
3,ATAGG,0.3 ± 0.012
4,ATAGA,0.543 ± 0.062
5,ATAGT,0.17 ± 0.01
6,ATAGC,0.131 ± 0.033
7,TTGGC,0.191 ± 0.053
8,TTGGG,0.218 ± 0.023
9,TTGGT,0.212 ± 0.12
10,TTGGA,0.294 ± 0.0019
11,TTCAG,0.375 ± 0.049
12,TTCAT,3.73 ± 1.1
13,TTCAA,0.427 ± 0.13
14,TTCAC,0.38 ± 0.036
15,CTCAG,0.169 ± 0.011
16,CTCAT,0.104 ± 0.013
17,CTCAC,0.0889 ± 0.01
18,CTCAA,0.116 ± 0.038
19,TTCCC,0.175 ± 0.022
20,TTCCA,0.142 ± 0.0024
21,TTCCG,0.813 ± 0.068
22,TTCCT,0.443 ± 0.21
23,ATTTT,0.4707 ± 0.0023

row,Variant,ligation selection enrichment
1,ATTTC,0.201 ± 0.0059
2,ATTTA,0.445 ± 0.1
3,ATTTG,4.54 ± 1.9
4,CTGAT,22 ± 5.4
5,CTGAA,0.424 ± 0.0081
6,CTGAC,1.07 ± 0.085
7,CTGAG,0.724 ± 0.054
8,CTCGT,0.216 ± 0.13
9,CTCGA,0.501 ± 0.012
10,CTCGG,0.161 ± 0.036
11,CTCGC,0.141 ± 0.0066
12,CTTTG,1.41 ± 0.7
13,CTTTA,0.398 ± 0.12
14,CTTTC,0.2049 ± 0.00081
15,CTTTT,0.63109 ± 0.00025
16,CTAGC,0.123 ± 0.0069
17,CTAGA,0.263 ± 0.038
18,CTAGG,0.212 ± 0.06
19,CTAGT,0.209 ± 0.029
20,GTCAC,0.221 ± 0.0092
21,GTCAA,0.766 ± 0.16
22,GTCAG,0.628 ± 0.038
23,GTCAT,0.373 ± 0.0027
